According to patent US9433687B2, “Anti-Notch3 antibodies and antibody-drug conjugates” (Pfizer Inc., priority 2012, dated 2016):
Several values for one entry are separate records, joined by “and”; a condition that tells them apart may be missing. Identical values can stand only once.

B1: ch75: rat-human chimeric anti-Notch3 antibody 75, rat variable regions fused with human IgG1 and human kappa (antibody, V domains shown)
VH: QVKLLQSGAALVKPGASVKMSCKASGYAFTDYWVTWVKQSHGKSLEWIGEISPNSGGTNFNEKFKGKATLTVDKSTSTAYMELSRLTSEDSAIYYCTRGEIRYNWFAYWGQGTLVTVSS
VL: NIVMTQSPKSMSISVGDRVTMNCKASQNVGNNIAWYQQKPGQSPKLLIYYASNRYTGVPDRFTGGGYGTDFTLTINSMQAEDAAFYYCQRLYNSPFTFGSGTKLEIK
B2: hu28 VH1.0/VL1.0: humanized r28 variant VH1.0/VL1.0, anti-Notch3 antibody (VH SEQ ID NO: 13, VL SEQ ID NO: 25) (antibody, V domains shown)
VH: EVQLVESGGGLVQPGGSLRLSCAASGFTFRDYGMTWVRQAPGKGLEWVAYISSGSNYIYYAEAVKGRFTISRDNAKNSLYLQMNSLRAEDTAVYYCARRGPFVLDAWGQGTLVTVSS
VL: DIQMTQSPSSLSASVGDRVTITCKASQSINRYLHWYQQKPGKAPKLLIYNANGLQTGVPSRFSGSGSGTDFTLTISSLQPEDFATYYCLQHNTWPDTFGGGTKVEIK

Legend:
[1] = system: Notch3 signaling in human Notch3 reporter cells co-cultured with DLL4-HEK293 cells; assay: Notch3 reporter gene co-culture assay; type: cell-based; details: average of two or three independent experiments; read-out: IC50 (nM) inhibition of Notch3-dependent signaling
Experimental: The ability of anti-Notch3 chimeric antibodies, ch28-hulgG1 and ch75-hulgG1, and humanized antibodies, hu28 and hu75, to inhibit Notch3 signaling were tested in a Notch3-dependent reporter gene co-culture assay. Anti-Notch3 antibodies were pre-incubated with Notch3 reporter cells and then co-cultured with DLL4-HEK293 cells to activate Notch3 signaling or with parental HEK293 cells as a control.
To generate the Notch3 reporter cell line, a series of three sequential, stable transfections were performed in the U-2 OS human osteosarcoma cell line (ATCC, Manassas, Va.). […]
To generate the ligand-expressing cells, HEK293 cells (ATCC) were transfected with a vector for expression of human DLL4. […] Following transfection, HEK293 cells were selected in 0.5 mg/ml G418, and clonal lines were isolated, expanded and analyzed for DLL4 expression. […]
The luminescent readings from Firefly-luciferase were divided by the internal control Renilla-luciferase reading to normalize the signals (termed hereinafter “F/R ratio”). […]
Human Notch3 reporter cells were trypinized and harvested from culture plate in assay medium which consisted 50% complete McCoy's 5A media (McCoy's 5A with 10% FBS and penicillin, streptomycin, Invitrogen) and 50% of complete MEM media (MEM with 10% FBS and penicillin, streptomycin, Invitrogen) and counted. […]

[2] = molecular target: T1, cell surface Notch3 on OVCAR3 cells (Homo sapiens, UniProt Q9UM47); assay: Cell-based ELISA, OVCAR3 cells; details: Table 29; LB = lacked binding
T1 construct: Notch3 endogenously expressing cells MDA-MB-468, HCC2429 and OVCAR3; endogenous in cells; host or cells: OVCAR3

[3] = molecular target: T2, full-length human Notch3 expressed on the cell surface of U2OS/hNotch3 cells (Homo sapiens, UniProt Q9UM47); assay: Cell-based ELISA, U2OS/hNotch3 cells; details: Table 29; two value columns; LB = lacked binding
T2 construct: U-2 OS cells stably over-expressing human or mouse full length Notch3 protein on cell surface; expressed in transfected cells; host or cells: U-2 OS (human osteosarcoma)
Experimental: Humanized hu28 and hu75, and rat-human chimeric, ch28 and ch75, anti-Notch3 antibodies were screened for cell surface Notch3 binding in a cell-based ELISA. U-2 OS cells stably over-expressing human or mouse full length Notch3 protein on cell surface (hereinafter U2OS/hNotch3 and U2OS/mNotch3, respectively) were plated at 50,000 cells/well in 96 well plates (white opaque, BD/VWR) the day before ELISA assay. On the day of the ELISA, culture media was removed from wells and serially diluted (1:3 in blocking buffer) antibody solutions were applied to the plate. Plates were incubated at room temperature for 2 hours before being washed with PBS-Mg/Ca. HRP-conjugated secondary antibody was then applied and incubated with cells for 1 hour as described above for recombinant protein ELISA. Plates were washed with PBS-Mg/Ca before being developed with Pico-Chemiluminescent developing kit (Thermal Scientific), and chemiluminescence measurements were performed per manufacturer's instructions. Data plotting and analyses were performed with Microsoft Excel and Graphpad-Prism software.
Unconjugated anti-Notch3 antibodies, anti-Notch3 ADCs and a negative control antibody (huNeg8.8) were screened for cell surface binding activity to Notch3 expressing cell lines in a cell-based ELISA. […]

[4] = molecular target: T3, cell surface Notch3 on HCC2429 cells (Homo sapiens, UniProt Q9UM47); assay: Cell-based ELISA, HCC2429 cells; details: Table 29; LB = lacked binding
T3 construct: endogenous Notch3 expressing cell lines, HCC2429 and MDA-MB-468; endogenous in cells; host or cells: HCC2429
Experimental: Unconjugated anti-Notch3 antibodies, anti-Notch3 ADCs and a negative control antibody (huNeg8.8) were screened for cell surface binding activity to Notch3 expressing cell lines in a cell-based ELISA. Over-expressing Notch3 cell line, U2OS/hNotch3, and endogenous Notch3 expressing cell lines, HCC2429 and MDA-MB-468, were plated at 50,000, 200,000 and 100,000 cells/well, respectively, in 96 well plates (white opaque, BD/VWR) the day before ELISA assay. On the day of the ELISA, culture media was removed from wells and serially diluted (1:3 in DPBS with calcium chloride and magnesium chloride (Ca/Mg) and 1% BSA) antibody and ADC solutions were applied to the plate. Plates were incubated at room temperature for 2 hours before washed with DPBS with Ca/Mg and 1% BSA. HRP-conjugated secondary antibody was then applied and incubated with cells for 1 hour. Plates were washed with DPBS with Ca/Mg and 1% BSA before being developed with Pico-Chemiluminescent developing kit (Thermal Scientific), and chemiluminescence measurements were performed per manufacturer's instructions. Data plotting and analyses were performed with Microsoft Excel and Graphpad-Prism software.
Unconjugated cysteine mutant humanized anti-Notch3 antibodies were screened for cell surface binding activity to Notch3 expressing cell lines in a cell-based ELISA, as described in previous Examples. […]

T2 sequence (Q9UM47 40-2321): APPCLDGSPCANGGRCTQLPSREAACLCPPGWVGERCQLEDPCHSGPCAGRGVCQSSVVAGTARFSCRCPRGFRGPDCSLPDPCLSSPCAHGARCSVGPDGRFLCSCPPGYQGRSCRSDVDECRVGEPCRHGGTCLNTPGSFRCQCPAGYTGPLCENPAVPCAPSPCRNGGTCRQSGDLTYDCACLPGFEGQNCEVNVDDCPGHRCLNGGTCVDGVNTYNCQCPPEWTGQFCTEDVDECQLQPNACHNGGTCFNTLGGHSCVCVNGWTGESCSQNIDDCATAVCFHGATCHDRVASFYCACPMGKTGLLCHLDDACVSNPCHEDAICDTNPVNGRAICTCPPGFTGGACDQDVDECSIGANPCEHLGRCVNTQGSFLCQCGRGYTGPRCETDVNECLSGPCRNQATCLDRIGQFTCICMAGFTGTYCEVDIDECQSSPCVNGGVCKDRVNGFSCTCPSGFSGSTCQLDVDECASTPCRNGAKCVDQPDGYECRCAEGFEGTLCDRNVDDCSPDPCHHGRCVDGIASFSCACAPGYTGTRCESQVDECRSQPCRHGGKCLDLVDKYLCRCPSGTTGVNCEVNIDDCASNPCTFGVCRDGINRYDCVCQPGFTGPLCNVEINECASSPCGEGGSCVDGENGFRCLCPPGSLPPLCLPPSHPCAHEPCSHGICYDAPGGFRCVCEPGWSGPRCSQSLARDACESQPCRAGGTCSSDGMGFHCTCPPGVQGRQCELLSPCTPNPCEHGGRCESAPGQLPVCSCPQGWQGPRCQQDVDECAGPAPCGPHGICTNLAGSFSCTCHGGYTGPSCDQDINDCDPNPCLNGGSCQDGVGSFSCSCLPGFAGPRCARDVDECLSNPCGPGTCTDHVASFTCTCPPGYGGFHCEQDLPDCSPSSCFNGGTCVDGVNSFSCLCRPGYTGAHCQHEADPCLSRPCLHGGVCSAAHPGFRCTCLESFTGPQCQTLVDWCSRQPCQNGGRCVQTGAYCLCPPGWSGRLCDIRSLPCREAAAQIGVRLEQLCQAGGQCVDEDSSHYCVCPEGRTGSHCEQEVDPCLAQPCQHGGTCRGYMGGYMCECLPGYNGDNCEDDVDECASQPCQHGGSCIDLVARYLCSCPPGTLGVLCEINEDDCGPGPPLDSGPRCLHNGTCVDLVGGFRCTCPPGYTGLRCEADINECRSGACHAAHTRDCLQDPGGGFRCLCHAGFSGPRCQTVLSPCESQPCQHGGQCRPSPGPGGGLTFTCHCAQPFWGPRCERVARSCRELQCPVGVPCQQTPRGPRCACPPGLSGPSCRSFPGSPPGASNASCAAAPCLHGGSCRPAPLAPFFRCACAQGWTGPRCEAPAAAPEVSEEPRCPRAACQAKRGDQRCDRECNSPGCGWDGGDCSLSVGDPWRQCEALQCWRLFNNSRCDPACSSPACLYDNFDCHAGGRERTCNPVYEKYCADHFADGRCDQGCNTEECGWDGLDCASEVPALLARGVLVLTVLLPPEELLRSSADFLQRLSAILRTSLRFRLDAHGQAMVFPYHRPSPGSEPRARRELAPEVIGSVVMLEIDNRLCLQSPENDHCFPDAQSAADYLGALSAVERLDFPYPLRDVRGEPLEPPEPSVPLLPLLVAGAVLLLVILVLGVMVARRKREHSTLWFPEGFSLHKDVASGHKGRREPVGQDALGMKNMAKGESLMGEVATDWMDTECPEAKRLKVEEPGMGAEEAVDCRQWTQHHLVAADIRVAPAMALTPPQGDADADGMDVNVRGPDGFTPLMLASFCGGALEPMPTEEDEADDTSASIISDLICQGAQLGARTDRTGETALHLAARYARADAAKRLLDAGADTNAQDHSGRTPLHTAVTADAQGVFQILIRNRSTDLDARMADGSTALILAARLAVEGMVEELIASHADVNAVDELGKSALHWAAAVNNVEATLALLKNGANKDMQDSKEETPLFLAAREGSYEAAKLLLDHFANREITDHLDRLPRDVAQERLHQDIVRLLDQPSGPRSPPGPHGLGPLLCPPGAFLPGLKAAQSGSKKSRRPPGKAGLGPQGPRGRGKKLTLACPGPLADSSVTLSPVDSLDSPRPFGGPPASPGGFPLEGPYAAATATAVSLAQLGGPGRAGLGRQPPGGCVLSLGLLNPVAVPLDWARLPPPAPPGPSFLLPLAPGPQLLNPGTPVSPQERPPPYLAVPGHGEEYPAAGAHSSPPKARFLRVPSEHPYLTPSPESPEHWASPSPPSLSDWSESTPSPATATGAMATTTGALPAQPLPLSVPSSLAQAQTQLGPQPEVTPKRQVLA
T1 sequence (Q9UM47 40-2321): as above
T3 sequence (Q9UM47 40-2321): as above

Row | Molecule | IC50 [1] | EC50 [2] | EC50 [3] | EC50 [4]
1 | B1 | 2.1 nM | – | – | –
2 | B2 | – | 460 pM | 300 pM and 260 pM | 100 pM
